Results published in patent US20170114130A1 (University of California, published 2017).

Tests used:
[1] = target: human IL-2 (recombinant IL-2, Humanzyme) (human) (UniProt P60568); assay: SPR (Biacore T200), antibody captured on anti-mouse IgG, IL-2 injected; calculated with the assumed off-rate limit
[2] = target: human IL-2 (recombinant IL-2, Humanzyme) (human) (UniProt P60568); assay: SPR (Biacore T200), antibody captured on anti-mouse IgG, IL-2 injected, 25 C, 1:1 Langmuir fit
[3] = target: human IL-2 (recombinant IL-2, Humanzyme) (human) (UniProt P60568); assay: SPR (Biacore T200), antibody captured on anti-mouse IgG, IL-2 injected; off-rate outside the specifications of the instrument, assumed limit
[4] = target: recombinant cynomolgus monkey (Macaca fascicularis) IL-2 (cynomolgus monkey (Macaca fascicularis)) (UniProt Q29615); assay: SPR as in Example 1, cynomolgus IL-2 1-100 nM, 1:1 Langmuir or steady-state fit
[5] = target: human IL-2 (recombinant IL-2, Humanzyme) (human) (UniProt P60568); assay: SPR, human IL-2; the value repeats Table 3 (assumed off-rate limit)
IL-2/F5.1.11 Fab complex = target: T1, IL-2/F5.1.11 Fab complex (human, UniProt P60568 21-153); assay: SPR (Biacore T200), 1-500 nM IL-2 pre-complexed with excess Fab over biotinylated IL-2Rα, equilibrium analysis
T1 construct: also called F5.1.11/IL-2
Description: Experiments were performed at 25° C. using a 10 μL/minute flow rate in 10 mM HEPES (pH7.4), 150 mM NaCl and 0.005% v/v Surfactant P20 buffer. […] Data was background subtracted using the adjacent control flow cell and buffer only injections. The affinity of the interaction was calculated from concentration-response relationship at equilibrium.

d1C7/IL-2 complex = target: T2, d1C7/IL-2 complex (human, UniProt P60568 21-153); assay: SPR (Biacore T200), complex injected over biotinylated receptor on streptavidin chip
T2 construct: Non-covalent complex: IL-2 (333 nM) pre-incubated with d1C7 IgG (1000 nM) for at least 20 minutes; also called clone d1C7/IL-2 complex
Description: Experiments were performed at 25° C. using a 10 μL/minute flow rate in 10 mM HEPES (pH 7.4), 150 mM NaCl and 0.005% v/v Surfactant P20 buffer. […] Data was background subtracted using the adjacent control flow cell and buffer only injections.

Sequence of human IL-2 (recombinant IL-2, Humanzyme) (human) (P60568 21-153 limits assumed): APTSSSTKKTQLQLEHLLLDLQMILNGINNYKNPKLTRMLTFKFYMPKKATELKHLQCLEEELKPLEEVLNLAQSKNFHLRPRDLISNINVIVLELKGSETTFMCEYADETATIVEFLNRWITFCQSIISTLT
T1 sequence (VH, as listed by the source limits assumed, chain 1 of 3): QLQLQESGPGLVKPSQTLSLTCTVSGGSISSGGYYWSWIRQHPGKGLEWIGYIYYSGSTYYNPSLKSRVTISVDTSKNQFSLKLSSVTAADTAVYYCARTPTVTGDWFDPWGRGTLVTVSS
T1 sequence (VL, as listed by the source limits assumed, chain 2 of 3): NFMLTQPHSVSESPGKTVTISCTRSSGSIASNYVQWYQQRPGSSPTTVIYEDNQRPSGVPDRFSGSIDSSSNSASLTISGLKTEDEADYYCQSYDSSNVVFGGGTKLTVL
T1 sequence (P60568 21-153 limits assumed, chain 3 of 3): as the sequence (P60568 21-153 limits assumed) above
T2 sequence (VH, as listed by the source limits assumed, chain 1 of 3): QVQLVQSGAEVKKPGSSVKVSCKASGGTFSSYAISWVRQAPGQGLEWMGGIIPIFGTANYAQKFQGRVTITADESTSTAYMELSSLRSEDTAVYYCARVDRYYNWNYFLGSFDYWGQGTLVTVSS
T2 sequence (VL, as listed by the source limits assumed, chain 2 of 3): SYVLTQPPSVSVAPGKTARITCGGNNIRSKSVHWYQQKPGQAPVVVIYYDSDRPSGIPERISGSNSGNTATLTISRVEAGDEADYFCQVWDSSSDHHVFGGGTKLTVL
T2 sequence (P60568 21-153 limits assumed, chain 3 of 3): as the sequence (P60568 21-153 limits assumed) above
Sequence of recombinant cynomolgus monkey (Macaca fascicularis) IL-2 (cynomolgus monkey (Macaca fascicularis)) (Q29615 21-154 limits assumed): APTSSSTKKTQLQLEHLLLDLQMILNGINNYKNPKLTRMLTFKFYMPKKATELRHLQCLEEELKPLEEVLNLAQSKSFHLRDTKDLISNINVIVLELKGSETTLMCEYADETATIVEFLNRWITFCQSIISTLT

With “mouse anti-human IL-2 clone 5344 (clone 5344.111, BD Biosciences) (antibody)” the Kd [1] was less than 0.05 nM, the kon [2] was 1.02e+06 M⁻¹ s⁻¹ and the koff [3] was less than 5e-05 s⁻¹. For the same molecule, the Kd [4] was greater than 50 nM and the Kd [5] was less than 0.05 nM.

B1: recombinant IL-2Rα, biotin labeled (receptor, UniProt P01589 22-240, looked up)
chain: ELCDDDPPEIPHATFKAMAYKEGTMLNCECKRGFRRIKSGSLYMLCTGNSSHSSWDNQCQCTSSATRNTTKQVTPQPEEQKERKTTEMQSPMQPVDQASLPGHCREPPPWENEATERIYHFVVGQMVYYQCVQGYRALHRGPAESVCKMTHGKTRWTQPQLICTGEMETSQFPGEEKPQASPEGRPESETSCLVTTTDFQIQTEMAATMETSIFTTEYQ
modifications: biotin labeled (site not stated)
notes: also called IL-2α; IL-2a
Work on B1 yielded a Kd (IL-2/F5.1.11 Fab complex) of 70.1 nM.

B2: recombinant IL-2Rβ, biotin labeled (receptor, UniProt P14784 27-240, looked up)
chain: AVNGTSQFTCFYNSRANISCVWSQDGALQDTSCQVHAWPDRRRWNQTCELLPVSQASWACNLILGAPDSQKLTTVDIVTLRVLCREGVRWRVMAIQDFKPFENLRLMAPISLQVVHVETHRCNISWEISQASHYFERHLEFEARTLSPGHTWEEAPLLTLKQKQEWICLETLTPDTQYEFQVRVKPLQGEFTTWSPWSQPLAFRTKPAALGKDT
modifications: biotin labeled (site not stated)
notes: also called CD122
B2: no binding (tested: IL-2 333 nM with IgG 1000 nM) (d1C7/IL-2 complex).
